The nature of this data set: protein stability index of a GFP-peptide fusion (GPS, HEK-293T) (PSI 1-6); higher = more stable.
[1] abbreviates: treatment: DMSO, c terminus: a fixed tail appended.
Setting [2] is: treatment: MLN4924 1 uM, 8 h, c terminus: a fixed tail appended.

The results in this text go back to the supplement of paper PMC10567573.

± gives the standard deviation.
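Also: 24-mer peptide tiles fused after GFP, lentivirally expressed, FACS-sorted into six equal bins by GFP/DsRed ratio, decoded by Illumina sequencing, PSI is the read-weighted mean bin number.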

Turning to LQAFGETLLLELEQDSGVQVEGLT [ADAMTS4], the protein stability index runs as follows: under setting [1], 3.65 ± 0.63; under setting [2], 3.79 ± 0.27.
The like results for LQCDAVNLAFGRRCEELEDARYKL [TEKT4] were, in that order, 3.74 ± 0.26 and 3.64 ± 0.31.
Consider LQQIQGLIGGLEAQLSELRCEMEA [KRT15], for which the protein stability index was determined as 3.52 ± 0.43 under setting [1] and 3.67 ± 0.41 under setting [2].
The like results for LQSELAGVADFSATYLRCQLLLIK [INTS4] were, in that order, 2.79 ± 0.46 and 2.57 ± 0.11.
For the sequence LQTDHYAALLGSNSESWGWDIGRG [SPSB2], the protein stability index came out at 3 ± 0.032 under setting [1] and 3.02 ± 0.13 under setting [2].
With LQWKSSHFERRDNMNDNFLEGEEE [CHGB], the protein stability index worked out at 5.36 ± 0.44 under setting [1] and 5.49 ± 0.23 under setting [2].
For LRAPTISDLLNDQDLLDVIRIKLD [EDARADD], the protein stability index came to 2.11 ± 0.61 under setting [1] and 2.06 ± 0.29 under setting [2].
For LRLLREEEYVAPPRGPLPTLQVVP [TRAF3IP2], the protein stability index is 2.96 ± 0.3 under setting [1] and 3.23 ± 0.14 under setting [2].
On the same counts, the results for LRMLEYEPAARISPLGALQHGFFR [DYRK1B] are 2.51 ± 0.2 and 2.61 ± 0.33.
With LRRHAGLLDGLARRVGILGEELAD [SCARA5], the protein stability index by setting is: under setting [1], 3.37 ± 0.17; under setting [2], 3.34 ± 0.18.
LRWERAWFPPAIMGVVSLVFLIIY [ARL6IP1]: the protein stability index is, setting by setting: under setting [1], 3.17 ± 0.1; under setting [2], 3.08 ± 0.31.
With LSASKDRTMRLWNIEEIDEIPLVI [WDR88], the protein stability index runs as follows: under setting [1], 2.19 ± 0.21; under setting [2], 2.39 ± 0.14.
The like results for LSELYEESSDLQMDVMPGEGDLPQ [EID1] were, in that order, 5.42 ± 0.47 and 5.12 ± 0.47.
The like results for LSGTRESLAQGPDAATTDELSSLG [TBC1D10A] were, in that order, 5.23 ± 0.34 and 4.9 ± 0.24.
Turning to LSHAGQKATAAFSNVGTAISKKFG [TPD52L1], the protein stability index runs as follows: under setting [1], 3.73 ± 0.23; under setting [2], 3.66 ± 0.21.
Regarding LSLDNSPLLQSIHQLDFVQVKASS [TRIM9], the protein stability index runs as follows: under setting [1], 2.73 ± 0.17; under setting [2], 2.98 ± 0.42.
With LSQVELQAAPGALPVSSPEPPPAL [TRIM55], the protein stability index was 4.79 ± 0.14 under setting [1] and 4.69 ± 0.21 under setting [2].
Consider LTAHLLPPRQALGSLCSPWAAPRV [YPEL3], for which the protein stability index under setting [1] was determined as 2.56 ± 0.36 and the protein stability index under setting [2] came out at 2.45 ± 0.36.
Consider LTEQYTVTGLMEATQMMVDIDGDV [RHOBTB2], for which the protein stability index by setting is: under setting [1], 4.66 ± 0.33; under setting [2], 4.63 ± 0.29.
Regarding LTMNSEDERRDAEERASLAGNRNS [KCNK9], the protein stability index is, setting by setting: under setting [1], 5.56 ± 0.082; under setting [2], 5.5 ± 0.22.
In the case of LTPADKAEHMKRQRHPRLRPQSAQ [AUP1], the protein stability index by setting is: under setting [1], 4.36 ± 0.16; under setting [2], 4.57 ± 0.28.
Regarding LTRIRKWIEHSKLREINFKIVEFN [GLT8D2], the protein stability index is, setting by setting: under setting [1], 2.48 ± 0.44; under setting [2], 2.51 ± 0.39.
As for LTRLRTASGHEPGGSAVCASRVKL [PLEKHN1], the protein stability index by setting is: under setting [1], 3.63 ± 0.17; under setting [2], 3.61 ± 0.28.
For the sequence LVAHQRYHTGKTPFVCPECGQPCS [ZNF649], the protein stability index is, setting by setting: under setting [1], 3.62 ± 0.45; under setting [2], 4.03 ± 0.51.
The like results for LVATNAHLDHYYQEELPALLKALV [FCHSD1] were, in that order, 2.24 ± 0.23 and 2.19 ± 0.36.
For LVGDSDVGKGEILESLQDGAAESP [RAB40C], the protein stability index is, setting by setting: under setting [1], 5.35 ± 0.27; under setting [2], 5.39 ± 0.3.
LVQKDQHSFELDEKALASILLQDH [ATL3] came in with a protein stability index under setting [1] of 3.43 ± 0.35 and a protein stability index under setting [2] of 3.38 ± 0.28.
MAAAVAAAPGALGSLHAGGARLVA [AUH]: the protein stability index under setting [1] came to 2.8 ± 0.58 and the protein stability index under setting [2] amounted to 3.12 ± 0.39.
Regarding MAAWGKKHAGKDPVRDECEERNRF [FAM9B], the protein stability index under setting [1] was 4.59 ± 0.23 and the protein stability index under setting [2] came out at 4.62 ± 0.34.
As to MALPGARARGWAAAARAAQRRRRV [RSAD1], the protein stability index is, setting by setting: under setting [1], 4.64 ± 0.15; under setting [2], 4.61 ± 0.17.
With MASCAEPSEPSAPLPAGVPPLEDF [FKBP8], the protein stability index runs as follows: under setting [1], 4.97 ± 0.28; under setting [2], 5.05 ± 0.14.
Regarding MAVALGCAIQASLNQGSVFQEYDT [ZNF449], the protein stability index under setting [1] was determined as 3.91 ± 0.54 and the protein stability index under setting [2] is 2.88 ± 1.2.
For the sequence MAVDKDTTNVGRYPVGRFPSLHVV [FEM1A], the protein stability index by setting is: under setting [1], 2.67 ± 0.3; under setting [2], 2.72 ± 0.34.
On to MDEKVFTKELDQWIEQLNECKQLS [PPP2CA], for which the protein stability index is, setting by setting: under setting [1], 4.15 ± 0.17; under setting [2], 4.15 ± 0.16.
On the same counts, the results for MDIKNSPSSLNSPSSYNCSQSILP [ESR2] are 3.8 ± 0.19 and 3.93 ± 0.29.
Regarding MERRRLRGSIQSRYISMSVWTSPR [PRAME], the protein stability index reads like this: under setting [1], 2.64 ± 0.28; under setting [2], 2.73 ± 0.38.
In the case of MESRKDITNQEELWKMKPRRNLEE [STEAP1], the protein stability index under setting [1] stood at 4.91 ± 0.37 and the protein stability index under setting [2] was 4.92 ± 0.34.
In turn, MGKRDTADIISTVEFNHTGELLAT [PPP2R2C] showed a protein stability index under setting [1] of 3.62 ± 0.21 and a protein stability index under setting [2] of 3.89 ± 0.31.
As to MGTRRKHLGCAVYQDMIYAVGGRD [KLHL20], the protein stability index amounted to 2.33 ± 0.27 under setting [1] and 2.29 ± 0.56 under setting [2].
With MHDMLLEELAPVGTAHIPPTMHLE [ZNF449], the protein stability index is 3.71 ± 0.32 under setting [1] and 3.64 ± 0.12 under setting [2].
Turning to MHPKETTRQLSLAVKDGLIVETLT [ZMYND11], the protein stability index runs as follows: under setting [1], 3.27 ± 0.28; under setting [2], 3.36 ± 0.24.
For the sequence MKALLGSYAHSVEDTHVQIGQVHE [FCHO1], the protein stability index turned out to be 3.62 ± 0.091 under setting [1] and 3.6 ± 0.25 under setting [2].
Turning to MKNLLFSEMWDIFLVRLLMAMAVM [MFSD9], the protein stability index is, setting by setting: under setting [1], 3.14 ± 0.48; under setting [2], 3.22 ± 0.77.
MLQKPKSVKLRALRSPRKFGVAGR [DFFB] came in with a protein stability index under setting [1] of 2.94 ± 0.27 and a protein stability index under setting [2] of 3.26 ± 0.35.
Sequence MLRWLIGGGREPQGLAEKSPLQTI [WDR41] came in with a protein stability index under setting [1] of 2.33 ± 0.21 and a protein stability index under setting [2] of 2.33 ± 0.23.
Turning to MNRAFSRKKDKTWMHTPEALSKHF [GULP1], the protein stability index worked out at 2.69 ± 0.21 under setting [1] and 2.85 ± 0.14 under setting [2].
The like results for MPYNFCLPSLSCRTSCSSRPCVPP [KRT33B] were, in that order, 2.34 ± 0.41 and 2.18 ± 0.45.
For the sequence MQDYVRTGTYQRAILQNHTDFKDK [CARM1], the protein stability index was 3.92 ± 0.32 under setting [1] and 4.18 ± 0.29 under setting [2].
As to MQIEFIKQGSMNFRFIPVLFPNAK [TRAF3IP2], the protein stability index worked out at 2.96 ± 0.71 under setting [1] and 2.45 ± 0.58 under setting [2].
For MQSLDDATKQLDFTRKTLAEKKQE [SASS6], the protein stability index stood at 5.12 ± 0.24 under setting [1] and 5.19 ± 0.27 under setting [2].
On the same counts, the results for MRKSGAMKKGGIFSAEFLKVFIPS [BNIP3L] are 2.38 ± 0.3 and 2.26 ± 0.21.
For the sequence MSIVIPLGVDTAETSYLEMAAGSE [KMT2E], the protein stability index reads like this: under setting [1], 2.76 ± 0.51; under setting [2], 2.74 ± 0.39.
On the same counts, the results for MSLLHLGALYGITLIPTCKFYTWL [SCD] are 3.01 ± 0.57 and 3.74 ± 0.94.
On the same counts, the results for MSSENCFVAENSSLHPESGQENDA [CD69] are 5.71 ± 0.19 and 5.54 ± 0.096.
With MSSPSSPFREQSFLCAAGDAGEES [TIAF1], the protein stability index by setting is: under setting [1], 5.34 ± 0.18; under setting [2], 5.32 ± 0.17.
Sequence MSSRKVLAIQARKRRPKREKHPKK [SRPK2] gave a protein stability index under setting [1] of 4.41 ± 0.28 and a protein stability index under setting [2] of 4.46 ± 0.52.
With MTMTTMPESLNSPVSGKAVFMEFG [DLX1], the protein stability index came to 2.42 ± 0.16 under setting [1] and 2.57 ± 0.21 under setting [2].
On to MVHKRSHTGERPFQCNQCGASFTQ [IKZF1], for which the protein stability index was determined as 2.86 ± 0.25 under setting [1] and 2.97 ± 0.43 under setting [2].
For the sequence NAVRQNGQLVRNDSLWHRSDSAPR [MFF], the protein stability index came to 4.01 ± 0.25 under setting [1] and 4.07 ± 0.21 under setting [2].
As for NCVSSVYLYYDPDYSFLSLGVYSA [ATE1], the protein stability index runs as follows: under setting [1], 3.23 ± 0.41; under setting [2], 3.27 ± 0.11.
As for NDTYRTDLCLLYPPFMIALACLHV [CCNC], the protein stability index stood at 3.07 ± 0.38 under setting [1] and 2.97 ± 0.23 under setting [2].
Turning to NDVRQSANYTCVAMSTLGVIEAIA [PTPRD], the protein stability index under setting [1] amounted to 2.3 ± 0.34 and the protein stability index under setting [2] was determined as 2.19 ± 0.3.
On the same counts, the results for NEDGPSSENLEEETENIIAANHWV [TRIP13] are 5.08 ± 0.31 and 5.42 ± 0.23.
The like results for NEPSINFYKRRGASDLSSEEGWRL [SAT1] were, in that order, 3.69 ± 0.4 and 3.84 ± 0.17.
On the same counts, the results for NETRRKHETRLVEVDSGRQIEYEY [LMNB1] are 4.54 ± 0.14 and 4.57 ± 0.23.
For the sequence NGINGELTSADRETAEEVSARIVQ [MAP2], the protein stability index turned out to be 5.23 ± 0.22 under setting [1] and 5.35 ± 0.18 under setting [2].
For NGLTPKKKIQVNSKPSIQPKPLLL [ATF6], the protein stability index runs as follows: under setting [1], 3.48 ± 0.17; under setting [2], 3.32 ± 0.25.
NHLDPFGHIILNSMHKYQPRLHIV [TBX5]: the protein stability index reads like this: under setting [1], 2.31 ± 0.23; under setting [2], 2.08 ± 0.52.
In the case of NIDETCGRHHSQSTEVQAHPYSTT [TEKT4], the protein stability index runs as follows: under setting [1], 4.62 ± 0.091; under setting [2], 4.54 ± 0.07.
Turning to NIIAIAATNNLYIFQDKVNSDMH [PPP2R2C], the protein stability index is, setting by setting: (treatment: DMSO, c terminus: native) 2.36 ± 0.49; (treatment: MLN4924 1 uM, 8 h, c terminus: native) 2.09 ± 0.2.
For the sequence NKKHGEAEKKKPKTQIVCKHFLEA [ZC3H15], the protein stability index is, setting by setting: under setting [1], 4.09 ± 0.32; under setting [2], 4.14 ± 0.31.
Consider NLAAAAADIPQDQLVVMHPTPQVD [BTBD10], for which the protein stability index by setting is: under setting [1], 5.14 ± 0.21; under setting [2], 5.13 ± 0.21.
